Results reported in paper PMC5345052, “Auto-phosphorylation Represses Protein Kinase R Activity” (Scientific Reports, 2017).

B1: full-length PKR with N-terminal split Venus V1 tag [human] / truncated PKR kinase domain with N-terminal split Venus V2 tag [human] (parent)
chain 1: MAGDLSAGFFMEELNTYRQKQGVVLKYQELPNSGPPHDRRFTFQVIIDGREFPEGEGRSKKEAKNAAAKLAVEILNKEKKAVSPLLLTTTNSSEGLSMGNYIGLINRIAQKKRLTVNYEQCASGVHGPEGFHYKCKMGQKEYSIGTGSTKQEAKQLAAKLAYLQILSEETSVKSDYLSSGSFATTCESQSNSLVTSTLASESSSEGDFSADTSEINSNSDSLNSSSLLMNGLRNNQRKAKRSLAPRFDLPDMKETKYTVDKRFGMDFKEIELIGSGGFGQVFKAKHRIDGKTYVIKRVKYNNEKAEREVKALAKLDHVNIVHYNGCWDGFDYDPETSDDSLESSDYDPENSKNSSRSKTKCLFIQMEFCDKGTLEQWIEKRRGEKLDKVLALELFEQITKGVDYIHSKKLIHRDLKPSNIFLVDTKQVKIGDFGLVTSLKNDGKRTRSKGTLRYMSPEQISSQDYGKEVDLYALGLILAELLHVCDTAFETSKFFTDLRDGIISDIFDKKEKTLLQKLLSKKPEDRPNTSEILRTLTVWKKSPEKNERHTC
chain 2: TVDKRFGMDFKEIELIGSGGFGQVFKAKHRIDGKTYVIKRVKYNNEKAEREVKALAKLDHVNIVHYNGCWDGFDYDPETSDDSLESSDYDPENSKNSSRSKTKCLFIQMEFCDKGTLEQWIEKRRGEKLDKVLALELFEQITKGVDYIHSKKLIHRDLKPSNIFLVDTKQVKIGDFGLVTSLKNDGKRTRSKGTLRYMSPEQISSQDYGKEVDLYALGLILAELLHVCDTAFETSKFFTDLRDGIISDIFDKKEKTLLQKLLSKKPEDRPNTSEILRTLTVWKKSPEKNERHTC

Variants of: B1
Test: split Venus fluorescence complementation in HEK293 cells
[1] = 20 ng/well of each construct, 5 μM of 2AP, n = 3, read off a plot
[2] = 20 ng/well of each construct, n = 7, read off a plot

response [1] | response [2] | response (20 ng/well of full-length PKR and 30 ng/well of the truncated KD, n = 7, read off a plot) | Variant
2.9 | 2.5 | – | chain 1 S33E H37R T42E
– | – | 4.2 | chain 2 K39R
4.7 | 3 | – | chain 1 S33A H37R T42A
2.7 | 2.5 | – | chain 1 H37R
